Earlier results on 2 substances are cited in PMC10094977.

The target in one data set is Cav1.2 IQ domain IQ (UniProt Q13936). Briefly: isothermal titration calorimetry. In general terms: Isothermal titration calorimetry measures the heat released or taken up as one component is titrated into another.
Data set [1] has as its target Cav1.2 alpha1C IQ domain 1611-1644 (Homo sapiens) (UniProt Q13936). As to the kind of experiment: isothermal titration calorimetry.

pKd: −log10 of the molar value.

Chain of Cav1.2 IQ domain IQ (Q13936 1665-1685): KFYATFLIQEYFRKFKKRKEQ
Chain of Cav1.2 alpha1C IQ domain 1611-1644 (Homo sapiens) (Q13936 1611-1644): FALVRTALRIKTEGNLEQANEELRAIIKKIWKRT

Regarding “Ca2+/calmodulin C-lobe C-lobe (from UniProt P0DP23)”, in the data set with Cav1.2 IQ domain IQ, the pKd is 8.70. With Calmodulin C-lobe (from UniProt P0DP23), in data set [1], the pKd is 8.70.

A word on the pKd: it is −log10 of the Kd, conventionally taken in molar units.
